Test results as given in patent US12691186B2, “B7-H3 miniproteins, conjugates, and uses thereof” (priority 2023, dated 2026).
Primed or numbered codes have the meaning given here. [ ]: non-standard residue; d: D form. The star is where a group is joined. Biotin = O=C1N[C@H]2[C@H](CS[C@H]2CCCCC(=O)*)N1; Lys(Me2) = CN(C)CCCC[C@H](N)C(=O)O; PEG4′ = not defined here

Tests used:
[1] = test system: opossum kidney proximal tubule cells; assay: OK-PTC uptake assay of miniprotein conjugates in presence of scaffold A decoys; type: cell-based; conditions: compound 20 μM; for % Uptake reduction in the presence of a decoy C118: 20-fold molar excess of decoy C118; for % Uptake reduction in the presence of a decoy C119: 20-fold molar excess of decoy C119
Method: This Example describes reduction of uptake of exemplary truncated and constrained B7-H3 miniprotein conjugates (C272, C308, C234, C394, C250, and C228) when combined with exemplary scaffold A decoys (C118, C119 and C120) as compared to no decoy. Uptake of compounds was evaluated in opossum kidney proximal tubule cells (as described in Example 5). Here, cells were treated with a compound in the presence or absence of a 20-fold molar excess of exemplary scaffold A decoys, C118, C119, and C120. Results depicting uptake of six exemplary B7-H3-targeting compounds, C272, C308, C234, C394, C250, and C228, in OK-PTC cells in the presence and absence of exemplary decoys C118, C119, and C120 (scaffold A decoys) are shown in Table 13. The B7-H3-targeting compounds were used at 20 μM and the decoys used at a 20-fold (with C272, C308, C234, C394, and C250) and 10-fold (with C228) molar excess.

[2] = In vitro metabolic stability, kidney brush border membrane preparations (KBBM); type: in vitro ADME; parameters: unit not given here; conditions: mouse kidney brush border membrane preparation, 37° C.
Method: (§1) Exemplary miniprotein conjugates were spiked into biological matrices at initial concentration between 1-2 μM. Tested matrices were varied by species (mouse, rat, human) and type (plasma, serum, and kidney brush border membrane preparations tested each from 0.625-100 μg/mL protein content). Tested conditions were incubated with TAs at 37° C. for 4 hours. At collection points of 0, 15, 30, 60, 120, 240 minutes, 50 μL of each condition were quenched by organic solvent (methanol or acetonitrile) or the addition of 4% phosphoric acid solution. Fractions of each quenched timepoint were subsequently assayed for parent TA concentration by high resolution LC-MS. Percent-parent-remaining-time plots were constructed from the ratio of each given time collection to the time-zero parent TA. Percent-parent-remaining in mouse serum and plasma for exemplary miniproteins are recorded in Table 8.

[3] = In vitro metabolic stability, plasma; type: in vitro ADME; parameters: unit not given here; conditions: 37° C.
Method: as §1

| Substance | % Uptake reduction in the presence of a decoy C118 [1] [%] | % Uptake reduction in the presence of a decoy C119 [1] [%] | % Uptake reduction in the presence of a decoy C120 ([1]; 20-fold molar excess of decoy C120) [%] | In vitro Stability (mouse) - KBBM [2] | In vitro Stability (mouse) - Plasma [3] |
| --- | --- | --- | --- | --- | --- |
| C250 ({Biotin-PEG4′}-CAKEKIAALSEIIWLPCLTYAQI[Lys(Me2)]AFIAALNDDPCQSSEILSEAKELNDSQCP-NH2; disulfide (positions not given here); also: disulfide bonds between pairs of the four Cys, pairing not given here) [Compound C250] | 90.2 | 97.4 | – | – | – |
| C272 (CAREKIAALSEIIWLPCLTYAQIXAFIAALNDDPCQSAEILSEAKELCS; Biotin-PEG4 N-term, dimethyllysine, C-amide; SITE 24 dimethyllysine) [Compound C272] | 95.6 | 98.8 | 97.5 | – | – |
| C303 (CAREKIAALSEIIWLPCLTYAQIXAFIAALNDDPCQSANILSEAXELCS; DOTA-PEG4 N-term, methyllysines, C-amide; SITE 24 monomethyllysine; SITE 45 monomethyllysine) [Compound C303] | – | – | – | >12 | >12 |
| C305 (CAXEKIAALSEIIWLPCLTYAQIXAFIAALNDDPCQSSEILSEAXELCS; DOTA-PEG4 N-term, methylated lysines, C-amide; SITE 3 trimethyllysine; SITE 24 monomethyllysine; SITE 45 monomethyllysine) [Compound C305] | – | – | – | >12 | >12 |
| C307 (CAXEKIAALSEIIWLPCLTYAQIXAFIXALNDDPCQSSEILSEAXELCS; DOTA-PEG4 N-term, methylated lysines, C-amide; SITE 3 trimethyllysine; SITE 24 monomethyllysine; SITE 28 monomethyllysine; SITE 45 monomethyllysine) [Compound C307] | – | – | – | >12 | >12 |
| C311 (CAXEKIAALSEIIWLPCLNYAQIXAFIAALNDDPCQSSEILSEAXELCS; DOTA-PEG4 N-term, methylated lysines, C-amide; SITE 3 trimethyllysine; SITE 24 monomethyllysine; SITE 45 monomethyllysine) [Compound C311] | – | – | – | >12 | >12 |
| C313 (CAXEKIAALSEIIWLPCLTYAQIXAFIAALNDDPCNSSEILSEAXELCS; DOTA-PEG4 N-term, methylated lysines, C-amide; SITE 3 trimethyllysine; SITE 24 monomethyllysine; SITE 45 monomethyllysine) [Compound C313] | – | – | – | >12 | >12 |
| C317 (CAXEKIAALSEIIWLPCLTYAQIXAFIARLNDDPCQSAEILSEAXELCS; DOTA-PEG4 N-term, methylarginine, methyllysines, C-amide; SITE 3 Rme; SITE 24 monomethyllysine; SITE 45 monomethyllysine) [Compound C317] | – | – | – | – | >12 |
| C319 (CAXEKIAALSEIIWLPCLTYAQIXAFIAXLNXDPCQSSEILSEAXELCS; DOTA-PEG4 N-term, methyllysines, citrulline, C-amide; SITE 3 trimethyllysine; SITE 24 dimethyllysine; SITE 29 monomethyllysine; SITE 32 citrulline; SITE 45 monomethyllysine) [Compound C319] | – | – | – | >12 | >12 |
| C349 (CAREKIAALSEIIWLPCLTYAQIXAFIAALNDDPCQSAEILSEAQELCS; DOTA-PEG4, methyl-Lys, C-terminal amide; SITE 24 monomethyllysine) [Compound C349] | – | – | – | >12 | >12 |
| C354 (CAREKIAALSEIIWLPCLTYAQIXAFIAALNDDPCQSSEILSEAXELCS; not fully specified; DOTA-PEG4, methyl-Lys, C-terminal amide; SITE 24 monomethyllysine; SITE 45 monomethyllysine) [Compound C354] | – | – | – | >12 | >12 |
| C467 (CAREKINALGEIIWLPCLTYDQIXAFIAALNDDPCQSSEILSEAXELCS; not fully specified; DOTA-PEG4, methyl-Lys, C-terminal amide; SITE 24 monomethyllysine; SITE 45 monomethyllysine) [Compound C467] | – | – | – | >12 | >12 |
| C493 (CAREKINALGEIIWLPCLTYDQIXAFIAXLNDDPCQSSEILSEAXELCS; not fully specified; DOTA-PEG4, methyl-Lys, C-terminal amide; SITE 24 monomethyllysine; SITE 29 monomethyllysine; SITE 45 monomethyllysine) [Compound C493] | – | – | – | >12 | >12 |
